Molecular target: Red_a PSI complex (one PSI monomer of the trimer; chimeric Photosystem I of Synechocystis PCC 6803) (Synechocystis sp. PCC6803 | Synechocystis sp. PCC6803 (endogenous)) (UniProt P29254)
Assay: cryo-EM structure; single particle Cryo-EM of the purified Red_a PSI trimer; 30 mM Tricine-NaOH pH 8, 150 mM NaCl, 0.02% DDM; 1 mg/ml chlorophyll; C1, symmetry expansion and multibody refinement with each monomer as a body

stoichiometry N: 3
Substance: Red_a PSI complex (one PSI monomer of the trimer; chimeric Photosystem I of Synechocystis PCC 6803) (from UniProt P29254 1-751; P29255 1-731; P32422 1-81; P72712 1-86; P37277 1-157)
